The text below walks through data of a protein production outcome set (Wang et al. 2014).
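Also: failed if final PepcDB status was selected cloned or expressed and not failed if soluble or beyond.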

This data set is described as follows: label from the status in PepcDB records.
“GYTPQQLDSMVRKQDWMFLLSDRVKRSAMSLNEREKSEKYVFSFPFTKSPKDAVSGGIIKGQNLANLFTELTVGYHDSVDFNKLPIPFACVSQNIVNGEQIVFHNGILATAMRASMAIPGVFTPVRKDSMILIDGGMINNYPVDVARSMGADIIIGVDVQNNLKGID”: the protein production result is “failed”. “MDKQSERNESKLFISNMVESAIRIGLIFVLLMFTYDIIRPFILPVIWGAIIAVALLPLTKKLQRAYGGRRGLAATTIVLLGIALLVTPLVMVSGSIVDGATHALDVLQNGQVKIPGPKASVADWPLVGDKLYEVWTLFATNLEQAIQTFMPQIKSALTSLLGMVGGVLGSLLLSILSLAIAAGFMTYSESLASGLQTIAIRTAGENAKSWTTLIAATIKSVLLGVVGVAAIQALLIGAGFFVFGVPAAGLLTLILMILCIAQLPALLAVLPVIGYMYMTQDSTTATMFTVWAVVGALSENLLKPMFMGRGVDVPMPVILLGAIGGMLFYGIVGLFLGAVILAIWYELFVWWLSIEKAQQQEEMAELKEEEEQTESGHGAGI”: the protein production entry is “not failed”. The result for “MSGDYRITLEELRYISVFHSITGVTAYRCIVDEENNRLIFLVSEGEAGRAIGRGGRLIKLLREALGKNIEVVEYSSDLERIVKNLFPGVKIESINVRERNGVKQVVIKVSEDDKGAAIGKGGKNVKRARLVLSKLFGVEKVVIR” reads “not failed”. The result for “MTDNKIKNEDGKLELIINAAQKRFAHYGLCKTTMNEIASDVGMGKASLYYYFPDKETLFEAVIKKEQNVFFDEMDKILNSGIDATALLKKYVKLRSLHFRHLLNLSKLRSDFFHNTKPVFAKAFESFKQKEVEIVAGIIQYGITTKEFKRGNKHENAEFLVHLLLGVRMVKLKYKEINDFDESDYEDLDKNMCKVAGMFLKEIQTEVASR” reads “not failed”; that for “MKNFFNHIELKFANLLSKISFMLLMVVGLLMVYFLFREVYNLVLLAFLSESEVHYYDILESILSFFIFFEFLTLIITSLRNKGHVSLIFLLSLGITSLIRLLLTYHERLVGVLLIASAILILIIGVFVLKKFVFPNDDTADYF”, “failed”; that for “MSLKKALFLILDQYADWEGVYLASALNQREDWSVHTVSLDPIVSSIGGFKTSVDYIIGLEPANFNLLVMIGGDSWSNDNKKLLHFVKTAFQKNIPIAAICGAVDFLAKNGLLNNHSHTGNFVYLWKDYKQYKPISSFVEKQAVRDKNLVTANGTAPIEFTNLILEMIDFDTPENIEKMMYMNRYGFYHFCDKYGNPFVEGHHHHHH”, “not failed”.

Consider “MSLIVVTGGAGFIGSHVVDKLSESNEIVVIDNLSSGNEEFVNEAARLVKADLAADDIKDYLKGAEEVWHIAANPDVRIGAENPDEIYRNNVLATYRLLEAMRKAGVSRIVFTSTSTVYGEAKVIPTPEDYPTHPISLYGASKLACEALIESYCHTFDMQAWIYRFANVIGRRSTHGVIYDFIMKLKRNPEELEILGNGEQNKSYIYISDCVDAMLFGLRGDERVNIFNIGSEDQIKVKRIAEIVCEELGLSPRFRFTGGDRGWKGDVPVMLLSIEKLKRLGWKPRYNSEEAVRMAVRDLVEDLDEEGHHHHHH”, for which the protein production entry was “not failed”. “MQDVLVIFAFFIILLSIVIALIKDLSSWVYITILLAIASWLLLFPQILSPYVVGIDAHFEHIIAEETLRTGHWDPDLSGNIVNAALSITILTPFISIVSGIPLDWVLKIILTIYPLISIPIIWKSNIHILSFSNRESFLSLLLLIGTSSFMLISVYGRQEVGLFSGLVLLYFLHFKKSSVQLSIVLIFLVIGLIFSHYSTAIILIITYAISSLFLYLFQRDKCSMRLVLFSIVFMVFWLILIVYASMASISHSFNFIYLSILDWATENSSIVVEQQLNPTFYNIFQSLNYVINIFIIIFLVIGTSYLVYSRVVKSKLESEENKKYFIFAFLSSIYILLSVLPGFSSVYNAERIYLTTLYLFSGFSLIGFKRVFVYIVTFFTKFSPIYLKKSNKYIFVVFSFFVLVHFVLQVGILPMLYYGDTNSKYFGDISEDRHYTLEEEVYAVNWLQGINNNNRIYTDFYGRGRLPLRSYGNIPTSQIVDLKEIGPTTLNLRNIIFYQQKKELNDEVSSKNFEQIEEINNFLQKYGSTLYNSGMTEVKVINLNS”: the protein production result is “failed”.

“MNGPAYEGGFKKFINGEFRMKAEKNLNKTRNISYAGLFFSLALTIFKLFAGLLGHSTALLADAVRSFSELINELVKLLDLSIAGKPEDWSHNYGHGKVATLVTGAGACVLLFAGIQSASLASGELLMFIQGKETEAPELFALSAAAFALVSKEIIPLFSRLAWKQTDKSLSETDIYTGNSRLKSLGLSCFVTLGIGCTFLPGKNWAVTDSLIAVLLSLYLLGSSGRLLYGTANELIEASLDEENNRKIREIINRTEGVLGSGELKTRRIGNGIAINACITVNSSLNIQEVAEIADLAEERLKKAYGEGIYTLIKAEPALERNCSFQKKPKISKEGGNKIIV”: the protein production result is recorded as “failed”. Consider “MAEISHPPMEQLQDLEYCIDSNPPWPETVLLAFQNYILMLGTSAFIPALLVPAMGGSDGDRARVIQTLLFVAGIKTLLQALFGTRLPAVVGGSLAYVVPIAYIINDSSLQKISNDHERFIHTMRAIQGALIVASSIQIILGYSQVWGLFSRFFSPLGMAPVVGLVGLGMFQRGFPQLGNCIEIGLPMLLLVIGLTQYLKHVRPFKDVPIFERFPILICVTIVWIYAVILTASGAYRGKPSLTQHSCRTDKANLISTAPWFKFPYPLQWGPPTFSVGHSFAMMSAVLVSMVESTGAYIAASRLAIATPPPAYVLSRGIGWQGIGVLLDGLFGTGTGSTVLVENVGLLGLTRVGSRRVVQVSAGFMIVFSTLGKFGAVFASIPVPIYAALHCILFGLVAAVGLSFLQFTNMNSMRNLMITGLSLFLGISIPQFFAQYWDARHYGLVHTNAGWFNAFLNTLFMSPATVGLIIAVFMDNTMEVERSKKDRGMPWWVKFRTFRGDNRNEEFYTLPFNLNRFFPPT”, for which the protein production result is on record as “failed”. The result for “MDPLVSFFDGMAQASWLRPVHDRLKKGTGSWANRAVLDVGCGTGRLLARGVHEAAHLAGVDLSKQMVLATEERLHEHKQCGRLTVVQGDAYDLPFADESFDVCLSTCVMFLLPEPERGMKEMIRVLNGAGVIGMLNPTNKMNHAAAKAYCKKSGITGFEEKTLLQWSNVSTRRHRYTAEQLTHFFKQHGAWVVTHELVLDGLAVVTVASWNKLEHHHHHH” reads “failed”; that for “MAKLVSIIVSVYNKEQFLEKCIESLIDLKMDKNNIEAIFVDDCSTDESVNIIKHYEKDYDFIKLIQLPENTGSPSEPRNIGMREAQGKYITLLDADDWLDKEGFPQVIEKVNKDDADLGFGQSFKHKSKNVKYHARFTSYKEASHLKPQDISKIFRAVGPPGKVFKRSLVMDHHIEFEHMKYGEDKLFFFQLFGKVDDITMSTIPMYHVNRYDENKSLVQQTSMLDKANSNLEVLDRTCHMDMSSELKHMALARMVEVDFISRFLRTKTFIKSADKEKFYAVIEKVERKIKEQGIDINTLITNPVFKQIYTLYHHADESVFVNFTKDVVNDQWRYIIQDGIVFRDFVHQYDMIKPTVVDCYPVYEGTQMMGENKYEVIRVMKPDDINIQSVSLVEINNAANEYEVTYKYSDDRIYVPHEEFEKLNKDININFNVNYGESGRSLVYASYPSFNDVFKMKRQNFKVEFVHKKNENKAQQVTNRKSEYFKRITNPMMTLKKIKIYKDVSFKEEVGSLEAGTRVEASDIQYTSKGTPRLVLDDGSIITANKDFITLINTSGLNKYITEVPKKVKVVKACKLYDSRDFKDNTVRKLKKGDVLTIRDIIYTNNSTPRLVTQEGLFLTANKDFIKIIK”, “failed”.

Regarding “MKLKYCHYAYDDEGYVIHMLTSNERTFFTNAYIIETKNSIVVVDTLMVNSDAILLRQYMDNINKPLIAVIITHGHPDHYNGTEIITGFKEVPIISTKGIRDCIQDTVDSKEVKWKPYFGQDWPEHKILPNQLVIDSEVVNLDGLDYSFRDLGAAESSSDLFFTLGEKRSVIFVGDVVFNNMHGFMNDGNSAQWLKVLQKLLTEIADVKLLFTGHGDPGDTHQLVQRQIDYISHYRSNLLAIIRGNQLEHHHHHH”, the protein production entry is listed as “failed”. Regarding “MIRKFSLIMATYGRKDEVGCFLESLMNSNYPMDKVEVIIVDQNKEIDLEPIISKYKEKIKVVHIKSNERGLALNRNKGLEIATGDIIAFPDDDCEYLVDTLNIVNNYFENEHCDLLMGRIVERNGEDSLREWPKEKIEINKNNFYTKCSSVTMFLDSKKCFVKFNDQLGAGKYFGACEDADLIYKNCKKGLKIIYNPELQIYHPHYDSNSNMDDKKIYSYGLGFGAMVKSNFDFSMLILFIKAEGYHFLKSLIYLITFKTTKSKRSWLAFKSRIKGFFEYKN”, the protein production result is given as “failed”. The result for “MKSPFYRCQNTTSVEKGNSAVMGGVLFSTGLLGNLLALGLLARSGLGWCSRRPLRPLPSVFYMLVCGLTVTDLLGKCLLSPVVLAAYAQNRSLRVLAPALDNSLCQAFAFFMSFFGLSSTLQLLAMALECWLSLGHPFFYRRHITLRLGALVAPVVSAFSLAFCALPFMGFGKFVQYCPGTWCFIQMVHEEGSLSVLGYSVLYSSLMALLVLATVLCNLGAMRNLYAMHRRLQRHPRSCTRDCAEPRADGREASPQPLEELDHLLLLALMTVLFTMCSLPVIYRAYYGAFKDVKEKNRTSEEAEDLRALRFLSVISIVDPWIFIIFRSPVFRIFFHKIFIRPLRYRSRCSNSTNMESSL” reads “failed”; that for “MKKKNNNKLHYLDSKGKLYTSGLRSDTKEKYGEIPSSNKNHNLIEKYNELQSLLSKEEEKYDFVKNELGDLQKQKDLLKWHLCNNIKKLSMKRSDYKFKTETKSKLESKLKSLKDMNKIHKFEHDTLEELVHKMEQELETKMYIKNDIENIFNECINKKDEYLKDITQERISVFKERKKRQNQLQKLLLIMKQENNKNYNINYLKKYESNLMNEINSYKNYKDFETKIAMDLIDDHSLNDLYVT”, “failed”. For “MTIATSTKPQINWVNTLFFLGLHIGALFAFIPSNFSWAAVGVALLLYWITGGLGITLGFHRLVTHRSFQTPKWLEYFLVLCGTLACQGGPIEWVGTHRIHHLHSDTDPDPHDSNKGFWWSHIGWLIYHSPSHADVPRFTKDIAEDPVYQFLQKYFIFIQIALGLLLLYLGGWSFVVWGVFFRIVWVYHCTWLVNSATHKFGYRTYDAGDRSTNCWWVAVLVFGEGWHNNHHAFQYSARHGLEWWEVDLTWMTVQLLQILGLATNVKLADKKQ”, the protein production result was “failed”. The result for “MLCARTDNHQGTGNVVTSAHMTRANDDDAGAAGIGAVAHMTTVDDNYTGHVERGKAARRFLPGATILKASVGPMDNNAYLVTCSATGETLLIDAANDAEVLIDLVRRYAPKLALIVTSHQHFDHWQALQAVAAATGAPTAAHPIDADPLPVKPDRLLTHGDSVRIGELTFDVIHLRGHTPGSIALALGGPVTGGVTQLFTGDCLFPGGVGKTWQPADFTQLLDDVTTRVFDVYADSTVIYPGHGDDTELGAERPSLSEWRARGW” reads “failed”.

Take “MKISVPTYPFARERYWISVPEMKTSTVNHILHPLVHRNTSDFTEQRFSSVFTGTEFFLSDHVVQGQKILPGVAYLEMAREAAEKAAGDLDGEQRVVSLKDIVWVRPITIESEPKEIHIGLFPEDNGDISFDIYSSSEHKEEALTIHCQGRAVISDEAETSILNLSSIQTECSLDTVTSEQCYAAFRKIGLDYGEGYQGIEKVYVGKDQLLAKISLPAFLKNDKQHFALHPSLMDSAFHATVGFIVSSVNAAGQAQTLSLPFALQEVDIFSPCPEKIWSYIRYSSDSLEHHHHHH”: the protein production entry was “failed”. The result for “MGHHHHHHSHMEFIVDSVDKTMHIGRQLGSLVNKGDILCLTGDLGTGKTHISKGIAEGLGIDEHITSPTFNIVNEYHSGRLTLYHFDVYRVNDPDEIEAIGFDEYIFGDGVSLIEWANYIEELIPEEYIHIKIEKLPDMGENFRKITINGYGDRYNYIKEIKE” reads “failed”. As for “MSLKLIGMLDSPYVRRVAISLKSLGLPFEHHSLSVFSTFEQFKAINPVVKAPTLVCEGGEVLMDSSLIIDYLETLAGPQRSLMPTALPQRLRELRLVGLALAACEKSVQIVYERNLRPAEKQHGPWLERVGGQLQAAYGELEQELQKQPLPRDGSLGQAGISLAVAWSFSQMMVADQFNPGQFPAVRGFAEYAEQLPVFLATPATEGHHHHHH”, the protein production entry is given as “not failed”.
